Data reported in patent US20240383989A1 (PHARMABCINE, published 2024).
Where a chain is given by its changes, count along the chain named.

B1: D4 (scFv) (scFv, part only; not given: scFv linker, domain order, tags, V domains shown, not shown: another chain or arm of the molecule; small tags and cut ends)
VH: EVQLVESGGGLVQPGGSLRLSCAASGYTFSSYWMSWVRQAPGKGLEWVSEINPGNGHTNYNEKFKSRFTISRDKSKNTLYLQMNSLRAEDTAVYYCARHWGPSLTSPFDYWGQGTLVTVSS
VL: DIQMTQSPSSLSASVGDRVTITCRADNLGDVNVHWYQQKPGKAPKLLIYYDADRPSGVPSRFSGSNSGNDATLTISSLQPEDFATYYCQAPTNNDPYTFGQGTKVEIK
B2: D4 (IgG) (antibody, V domains shown)
VH: B1 VH
VL: DIQMTQSPSSLSASVGDRVTITCRADNLGDVNVHWYQQKPGKAPKLLIYYDADRPSGVPSRFSGSNSGNDATLTISSLQPEDFATYYCQAPTNNDPYTFGQGTKVEIKR
notes: Converted to IgG with the pfusess-hchg1 (human IgG1) and pfuse2ss-hclk (human kappa) vectors
B3: D3 (scFv) (scFv, part only; not given: scFv linker, domain order, tags, V domains shown, not shown: another chain or arm of the molecule; small tags and cut ends)
VH: B1 VH
VL: B1 VL with N93K, D95V
B4: A5 (scFv) (scFv, part only; not given: scFv linker, domain order, tags, V domains shown, not shown: another chain or arm of the molecule; small tags and cut ends)
VH: B1 VH
VL: B1 VL with N93T, N94H, D95L
B5: LH-E7 (scFv) (scFv, V domains shown)
VH: B1 VH
VL: B2 VL with N93R, N94I, D95A
B6: LHL-G1 (scFv) (scFv, V domains shown)
VH: B1 VH with H99S, W100Y, G101R, Y110F
VL: B2 VL with N93T, D95E
B7: D3 (IgG) (antibody, V domains shown)
VH: B1 VH
VL: B2 VL with N93K, D95V
notes: as for B2
B8: LH-E7 (IgG) (antibody, V domains shown)
VH: B1 VH
VL: B2 VL with N93R, N94I, D95A
notes: Converted to IgG; VH was cloned into Invivogen pfusess-hchg1 (human IgG1 heavy constant) and VL into pfuse2ss-hclk (human kappa constant); also called LH-67; LH-ET
B9: LHL-G1 (IgG) (antibody, V domains shown)
VH: B1 VH with H99S, W100Y, G101R, Y110F
VL: B2 VL with N93T, D95E
notes: as for B2
B10: A5 (IgG) (antibody, V domains shown)
VH: B1 VH
VL: B2 VL with N93T, N94H, D95L
notes: as for B2
B11: 6A6 (scFv) (scFv, from another filing, V domains shown)
VH: QMQLVQSGAEVKKPGASVKLSCKASGYTFSSYWMHWVRQAPGQRLEWMGEINPGNGHTNYNEKFKSRVTITVDKSASTAYMELSSLRSEDTAVYYCAKIWGPSLTSPFDYWGQGTLVTVSS
VL: SNFMLTQPPSVSVSPGKTARITCRGDNLGDVNVHWYQQRPGQAPVLVMYYDADRPSGIPERFSGSNSGNTATLTISGVEAGDEADYYCQVWDRTSEYVFGTGTKVTVLG
B12: 6A6 (IgG) (antibody, from another filing, V domains shown)
VH: B11 VH
VL: B11 VL

Legend:
human KDR1 to 3 domain [1] = target: T1, human KDR1 to 3 domain (human, UniProt P35968 20-327, limits assumed); assay: BLI (Octet), KDR1 to 3 domains on biosensor, scFv added, off-rate screening
T1 construct: domain: KDR1 to 3 domain; The panning antigen was KDR1 to 3 domain-Fc; Treated as one molecule; also called KDR1 to 3 domains; KDR D1 to D3

human KDR1 to 3 domain [2] = target: T1, human KDR1 to 3 domain; assay: BLI (Octet), antibody on biosensor, human KDR1 to 3 as analyte
Method: The binding of the selected antibodies to the KDR1 to 3 domain was measured using the Octet system (Fortebio Inc. US).

[3] = target: human KDR1 to 3 domain (human) (UniProt P35968); assay: BLI (Octet), KDR1 to 3 domains on biosensor, scFv added, off-rate screening
[4] = target: human KDR1 to 3 domain (human) (UniProt P35968); assay: BLI (Octet), antibody on biosensor, human KDR1 to 3 as analyte

T1 sequence (P35968 20-327 limits assumed): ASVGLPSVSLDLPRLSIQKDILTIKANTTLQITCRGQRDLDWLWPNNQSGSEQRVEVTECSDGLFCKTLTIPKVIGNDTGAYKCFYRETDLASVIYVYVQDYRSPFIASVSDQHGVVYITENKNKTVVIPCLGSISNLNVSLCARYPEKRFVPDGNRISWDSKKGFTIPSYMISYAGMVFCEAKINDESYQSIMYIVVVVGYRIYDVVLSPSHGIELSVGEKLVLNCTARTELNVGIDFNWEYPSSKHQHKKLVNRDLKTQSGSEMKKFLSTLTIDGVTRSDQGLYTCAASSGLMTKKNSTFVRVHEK
Chain of human KDR1 to 3 domain (human) (P35968 20-327 limits assumed): as above

| Binder | koff (human KDR1 to 3 domain [1]) [s⁻¹] | Kd (human KDR1 to 3 domain [2]) [nM] | koff (human KDR1 to 3 domain [2]) [s⁻¹] | also measured |
| --- | --- | --- | --- | --- |
| B1 | 0.000165 |  |  |  |
| B2 |  | 0.366 | 3.45e-05 |  |
| B3 | 0.00015 |  |  |  |
| B4 | 0.000187 |  |  |  |
| B5 | 0.000111 |  |  |  |
| B6 | 0.000239 |  |  |  |
| B7 |  | 0.773 | 8.67e-05 | kon (human KDR1 to 3 domain [2]): 112000 M⁻¹ s⁻¹ |
| B8 |  | 1.3 | 6.55e-05 | kon (human KDR1 to 3 domain [2]): 50600 M⁻¹ s⁻¹ |
| B9 |  |  | 0.000251 | kon (human KDR1 to 3 domain [2]): 73700 M⁻¹ s⁻¹ |
| B10 |  | 0.886 | 8.86e-05 |  |
| B11 |  |  |  | koff [3]: 0.000266 s⁻¹ |
| B12 |  |  |  | Kd [4]: 13.2 nM; koff [4]: 0.00168 s⁻¹; kon [4]: 127000 M⁻¹ s⁻¹ |
